Test results reported in patent publication US6897296.

B1: recombinant CPP32 (protein)
chain: SGISLDNSYKMDYPEMGLCIIINNKNFHKSTGMTSRSGTDVDAANLRETFRNLKYEVRNKNDLTREEIVELMRDVSKEDHSKRSSFVCVLLSHGEEGIIFGTNGPVDLKKITNFFRGDRCRSLTGKPKLFIIQACRGTELDCGIETDSGVDDDMACHKIPVEADFLYAYSTAPGYYSWRNSKDGSWFIQSLCAMLKQYADKLEFMHILTRVNRKVATEFESFSFDATFHAKKQIPCIVSMLTKELYFYH
B2: ICE (protein)
chain: NPAMPTSSGSEGNVKLCSLEEAQRIWKQKSAEIYPIMDKSSRTRLALIICNEEFDSIPRRTGAEVDITGMTMLLQNLGYSVDVKKNLTASDMTTELEAFAHRPEHKTSDSTFLVFMSHGIREGICGKKHSEQVPDILQLNAIFNMLNTKNCPSLKDKPKVIIIQACRGDSPGVVWFKDSVGVSGNLSLPTTEEFEDDAIKKAHIEKDFIAFCSSTPDNVSWRHPTMGSVFIGRLIEHMQEYACSCDVEEIFRKVRFSFEQPDGRAQMPTTERVTLTRCFYLFPGH
B3: Mch2 (protein)
chain: AFYKREMFDPAEKYKMDHRRRGIALIFNHERFFWHLTLPERRGTCADRDNLTRRFSDLGFEVKCFNDLKAEELLLKIHEVSTVSHADADCFVCVFLSHGEGNHIYAYDAKIEIQTLTGLFKGDKCHSLVGKPKIFIIQACRGNQHDVPVIPLDVVDNQTEKLDTNITEVDAASVYTLPAGADFLMCYSVAEGYYSHRETVNGSWYIQDLCEMLGKYGSSLEFTELLTLVNRKVSQRRVDFCKDPSAIGKKQVPCFASMLTKKLHFFPKSN
B4: recombinant Mch3 (protein)
chain: AKPDRSSFVPSLFSKKKKNVTMRSIKTTRDRVPTYQYNMNFEKLGKCIIINNKNFDKVTGMGVRNGTDKDAEALFKCFRSLGFDVIVYNDCSCAKMQDLLKKASEEDHTNAACFACILLSHGEENVIYGKDGVTPIKDLTAHFRGDRCKTLLEKPKLFFIQACRGTELDDGIQADSGPINDTDANPRYKIPVEADFLFAYSTVPGYYSWRSPGRGSWFVQALCSILEEHGKDLEIMQILTRVNDRVARHFESQSDDPHFHEKKQIPCVVSMLTKELYFSQ
B5: TX (protein)
chain: QISPNKKAHPNMEAGPPESGESTDALKLCPHEEFLRLCKERAEEIYPIKERNNRTRLALIICNTEFDHLPPRNGADFDITGMKELLEGLDYSVDVEENLTARDMESALRAFATRPEHKSSDSTFLVLMSHGILEGICGTVHDEKKPDVLLYDTIFQIFNNRNCLSLKDKPKVIIVQACRGANRGELWVRDSPASLEVASSQSSENLEEDAVYKTHVEKDFIAFCSSTPHNVSWRDSTMGSIFITQLITCFQKYSWCCHLEEVFRKVQQSFETPRAKAQMPTIERLSMTRYFYLFPGN
B6: bacterially expressed recombinant Mch4 (GST-Mch4 fusion protein) (protein)
chain: IQIVTPPVDKEAESYQGEEELVSQTDVKTFLEALPRAAVYRMNRNHRGLCVIVNNHSFTSLKDRQGTHKDAEILSHVFQWLGFTVHIHNNVTKVEMEMVLQKQKCNPAHADGDCFVFCILTHGRFGAVYSSDEALIPIREIMSHFTALQCPRLAEKPKLFFIQACQGEEIQPSVSIEADALNPEQAPTSLQDSIPAEADFLLGLATVPGYVSFRHVEEGSWYIQSLCNHLKKLVPRHEDILSILTAVNDDVSRRVDKQGTKKQMPQPAFTLRKKLVFPVPLDALSI

Assays:
[1] = biological target: T1, proMch4 (35S-labeled wild type Mch4)
T1 chain: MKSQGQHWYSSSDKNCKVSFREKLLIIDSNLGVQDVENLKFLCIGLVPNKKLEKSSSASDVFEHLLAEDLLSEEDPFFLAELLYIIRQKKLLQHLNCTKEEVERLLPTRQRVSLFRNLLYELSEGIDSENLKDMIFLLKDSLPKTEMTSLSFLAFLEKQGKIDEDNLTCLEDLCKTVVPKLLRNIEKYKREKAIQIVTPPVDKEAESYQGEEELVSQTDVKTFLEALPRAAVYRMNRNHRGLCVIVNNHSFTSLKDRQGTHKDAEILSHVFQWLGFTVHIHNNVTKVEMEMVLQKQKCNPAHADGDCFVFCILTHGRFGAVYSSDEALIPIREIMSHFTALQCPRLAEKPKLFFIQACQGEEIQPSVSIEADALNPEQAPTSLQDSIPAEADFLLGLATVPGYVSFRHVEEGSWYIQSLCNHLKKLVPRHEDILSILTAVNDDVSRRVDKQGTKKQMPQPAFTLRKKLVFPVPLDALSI

[2] = biological target: T2, DEVD-AMC (not fully specified)
T2 chain: DEVD

[3] = biological target: T3, YVAD-AMC (not fully specified)
T3 chain: YVAD

[4] = biological target: T4, truncated Mch4-M134
T4 chain: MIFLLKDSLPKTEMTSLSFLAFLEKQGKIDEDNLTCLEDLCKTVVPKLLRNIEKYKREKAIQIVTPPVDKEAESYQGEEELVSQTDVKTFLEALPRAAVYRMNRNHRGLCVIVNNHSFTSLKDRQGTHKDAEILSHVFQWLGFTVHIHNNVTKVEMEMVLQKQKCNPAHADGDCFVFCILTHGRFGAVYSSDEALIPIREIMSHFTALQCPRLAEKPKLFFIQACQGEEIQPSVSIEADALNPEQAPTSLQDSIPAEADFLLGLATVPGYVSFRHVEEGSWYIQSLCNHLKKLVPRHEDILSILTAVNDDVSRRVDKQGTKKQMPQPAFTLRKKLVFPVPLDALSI

| Protein | cleavage of 35S-labeled proenzyme, SDS-PAGE and autoradiography [1] | cleavage of proenzyme [1] | other results |
| --- | --- | --- | --- |
| B1 | there was no significant cleavage of proMch4 when incubated with recombinant CPP32 or Mch3 enzymes |  |  |
| B2 |  | none of these enzymes were able to efficiently process proMch4 |  |
| B3 |  | none of these enzymes were able to efficiently process proMch4 |  |
| B4 | there was no significant cleavage of proMch4 when incubated with recombinant CPP32 or Mch3 enzymes |  |  |
| B5 |  | none of these enzymes were able to efficiently process proMch4 |  |
| B6 |  |  | Km (DEVD-AMC) [2]: 130 µM; Vmax/Km [2]: Vmax/KmMch4=18; Km (YVAD-AMC) [3]: 150 µM; cleavage of 35S-labeled proenzyme, SDS-PAGE and autoradiography [4]: Although Mch4 was able to cleave proMch4, its activity towards its proenzyme was significantly lower than that towards proCPP32 and proMch3 (FIG. 5B, lane 7) |
